Assay [1] addresses DS-Cav1-foldon-I53-50 nanostructure, 100% valency (respiratory syncytial virus (RSV)). Briefly: SPR, D25 immobilised, antigen at 50 nM heat-stressed at 70 °C for 1 h (FIG. 10). (In general: In SPR one partner is held on a chip, and binding of the other changes the refractive index at the surface.)
Assay [2] addresses DS-Cav1-foldon-I53-50A trimer (respiratory syncytial virus (RSV)). The assay is described as above.

For one substance, percent of binding signal retained after 70 °C for 1 hour results are on record in patent publication US20240150411A1.

With D25 monoclonal antibody, the values for the percent of binding signal retained after 70 °C for 1 hour in assay [1] and in assay [2] were 80% and 50%, respectively.
